For 20 molecules, binding result and EC50 results are on record in patent US10421817 (BEIJING MABWORKS BIOTECH, dated 2019).

B1: 18F2-30-VH7VL0 (antibody, human IgG1, kappa, V domains shown)
VH: QVQLVQSGAEVKKPGASVKVSCKASGYTFTSFWLNWVKQRPGQGLEWIGNIYPSTSYTVYNQKFKDKVTLTVDKSTSTAYMELSSLRSEDTAVYYCTRTWRGNSFDYWGQGTTVTVSS
VL: DIVMTQSPDSLAVSLGERATINCKSSQSLLNSGNQKNYVTWYQQKPGQPPKLLIYWGSTRSTGVPDRFSGSGSGTDFTLTISSLQAEDVAVYYCQNDYTYPFTFGQGTKLEIKR
notes: Humanized, human IgG1/kappa constant regions
B2: 18F2-66VH6VL0 (antibody, human IgG1, kappa, V domains shown)
VH: QVQLVQSGAEVKKPGASVKVSCKASGYTFTSFWINWVRQRPGQGLEWIGNIYPSASYTVYNQKFKDRVTLTVDKSSSTAYMELSSLTSEDTAVYYCTRTWRGNSFDLWGQGTTVTVSS
VL: DIVMTQSPDSLAVSLGERATINCKSSQSLLNSGNQKNYVTWYQQKPGQPPKLLIYWSSTRSFGVPDRFSGSGSGTDFTLTISSLQAEDVAVYYCQNDYTYPFTFGQGTKLEIKR
notes: as for B1
B3: 18F2-35VH2VL0 (antibody, human IgG1, kappa, V domains shown)
VH: QVQLVQSGAEVKKPGASVKVSCKASGYTFTSFWLNWVRQAPGQGLEWIGNIYPSTSYTIYNQKFKDRVTLTVDKSTSTVYMELSSLRSEDTAVYYCARTWRGNSFDYWGQGTTVTVSS
VL: DIVMTQSPDSLAVSLGERATINCKSSQSLLNSGNQKNYLTWYQQKPGQPPKLLIYWGSTRVRGVPDRFSGSGSGTDFTLTISSLQAEDVAVYYCQNDYTYPFTFGQGTKLEIKR
notes: as for B1
B4: 18F2-66VH0VL0 (antibody, human IgG1, kappa, V domains shown)
VH: QVQLVQSGAEVKKPGASVKVSCKASGYTFTSFWINWVRQAPGQGLEWMGNIYPSASYTVYNQKFKDRVTMTRDTSTSTVYMELSSLRSEDTAVYYCARTWRGNSFDLWGQGTTVTVSS
VL: DIVMTQSPDSLAVSLGERATINCKSSQSLLNSGNQKNYVTWYQQKPGQPPKLLIYWSSTRSFGVPDRFSGSGSGTDFTLTISSLQAEDVAVYYCQNDYTYPFTFGQGTKLEIKR
notes: as for B1
B5: 18F2-66VH5VL0 (antibody, human IgG1, kappa, V domains shown)
VH: QVQLVQSGAEVKKPGASVKVSCKASGYTFTSFWINWVRQRPGQGLEWIGNIYPSASYTVYNQKFKDRVTLTVDKSTSTAYMELSSLRSEDTAVYYCTRTWRGNSFDLWGQGTTVTVSS
VL: DIVMTQSPDSLAVSLGERATINCKSSQSLLNSGNQKNYVTWYQQKPGQPPKLLIYWSSTRSFGVPDRFSGSGSGTDFTLTISSLQAEDVAVYYCQNDYTYPFTFGQGTKLEIKR
notes: as for B1
B6: 18F2-66VH4VL0 (antibody, human IgG1, kappa, V domains shown)
VH: QVQLVQSGAEVKKPGASVKVSCKASGYTFTSFWINWVRQRPGQGLEWIGNIYPSASYTVYNQKFKDRVTLTVDKSTSTVYMELSSLRSEDTAVYYCARTWRGNSFDLWGQGTTVTVSS
VL: DIVMTQSPDSLAVSLGERATINCKSSQSLLNSGNQKNYVTWYQQKPGQPPKLLIYWSSTRSFGVPDRFSGSGSGTDFTLTISSLQAEDVAVYYCQNDYTYPFTFGQGTKLEIKR
notes: as for B1
B7: 18F2-35VH5VL0 (antibody, human IgG1, kappa, V domains shown)
VH: QVQLVQSGAEVKKPGASVKVSCKASGYTFTSFWLNWVRQRPGQGLEWIGNIYPSTSYTIYNQKFKDRVTLTVDKSTSTAYMELSSLRSEDTAVYYCTRTWRGNSFDYWGQGTTVTVSS
VL: DIVMTQSPDSLAVSLGERATINCKSSQSLLNSGNQKNYLTWYQQKPGQPPKLLIYWGSTRVRGVPDRFSGSGSGTDFTLTISSLQAEDVAVYYCQNDYTYPFTFGQGTKLEIKR
notes: as for B1
B8: 18F2-35VH4VL0 (antibody, human IgG1, kappa, V domains shown)
VH: QVQLVQSGAEVKKPGASVKVSCKASGYTFTSFWLNWVRQRPGQGLEWIGNIYPSTSYTIYNQKFKDRVTLTVDKSTSTVYMELSSLRSEDTAVYYCARTWRGNSFDYWGQGTTVTVSS
VL: DIVMTQSPDSLAVSLGERATINCKSSQSLLNSGNQKNYLTWYQQKPGQPPKLLIYWGSTRVRGVPDRFSGSGSGTDFTLTISSLQAEDVAVYYCQNDYTYPFTFGQGTKLEIKR
notes: as for B1
B9: 18F2-66VH2VL0 (antibody, human IgG1, kappa, V domains shown)
VH: QVQLVQSGAEVKKPGASVKVSCKASGYTFTSFWINWVRQAPGQGLEWIGNIYPSASYTVYNQKFKDRVTLTVDKSTSTVYMELSSLRSEDTAVYYCARTWRGNSFDLWGQGTTVTVSS
VL: DIVMTQSPDSLAVSLGERATINCKSSQSLLNSGNQKNYVTWYQQKPGQPPKLLIYWSSTRSFGVPDRFSGSGSGTDFTLTISSLQAEDVAVYYCQNDYTYPFTFGQGTKLEIKR
notes: as for B1
B10: 18F2-35VH6VL0 (antibody, human IgG1, kappa, V domains shown)
VH: QVQLVQSGAEVKKPGASVKVSCKASGYTFTSFWLNWVRQRPGQGLEWIGNIYPSTSYTIYNQKFKDRVTLTVDKSSSTAYMELSSLTSEDTAVYYCTRTWRGNSFDYWGQGTTVTVSS
VL: DIVMTQSPDSLAVSLGERATINCKSSQSLLNSGNQKNYLTWYQQKPGQPPKLLIYWGSTRVRGVPDRFSGSGSGTDFTLTISSLQAEDVAVYYCQNDYTYPFTFGQGTKLEIKR
notes: as for B1
B11: 18F2-66VH3VL0 (antibody, human IgG1, kappa, V domains shown)
VH: QVQLVQSGAEVKKPGASVKVSCKASGYTFTSFWINWVRQAPGQGLEWIGNIYPSASYTVYNQKFKDRVTLTVDTSTSTVYMELSSLRSEDTAVYYCARTWRGNSFDLWGQGTTVTVSS
VL: DIVMTQSPDSLAVSLGERATINCKSSQSLLNSGNQKNYVTWYQQKPGQPPKLLIYWSSTRSFGVPDRFSGSGSGTDFTLTISSLQAEDVAVYYCQNDYTYPFTFGQGTKLEIKR
notes: as for B1
B12: 18F2-35VH7VL0 (antibody, human IgG1, kappa, V domains shown)
VH: QVQLVQSGAEVKKPGASVKVSCKASGYTFTSFWLNWVKQRPGQGLEWIGNIYPSTSYTIYNQKFKDKVTLTVDKSTSTAYMELSSLRSEDTAVYYCTRTWRGNSFDYWGQGTTVTVSS
VL: DIVMTQSPDSLAVSLGERATINCKSSQSLLNSGNQKNYLTWYQQKPGQPPKLLIYWGSTRVRGVPDRFSGSGSGTDFTLTISSLQAEDVAVYYCQNDYTYPFTFGQGTKLEIKR
notes: as for B1
B13: 18F2-35VH3VL0 (antibody, human IgG1, kappa, V domains shown)
VH: QVQLVQSGAEVKKPGASVKVSCKASGYTFTSFWLNWVRQAPGQGLEWIGNIYPSTSYTIYNQKFKDRVTLTVDTSTSTVYMELSSLRSEDTAVYYCARTWRGNSFDYWGQGTTVTVSS
VL: DIVMTQSPDSLAVSLGERATINCKSSQSLLNSGNQKNYLTWYQQKPGQPPKLLIYWGSTRVRGVPDRFSGSGSGTDFTLTISSLQAEDVAVYYCQNDYTYPFTFGQGTKLEIKR
notes: as for B1
B14: 18F2-66VH6VL3 (antibody, human IgG1, kappa)
heavy: not shown
light: DIVMTQSPSSLTVSLGEKATISCKSSQSLLNSGNQKNYVTWYQQKPGQPPKLLIYWSSTRSFGVPDRFSGSGSGTDFTLTISSLQAEDLAVYYCQNDYTYPFTFGSGTKLEIKRTVAAPSVFIFPPSDEQLKSGTASVVCLLNNFYPREAKVQWKVDNALQSGNSQESVTEQDSKDSTYSLSSTLTLSKADYEKHKVYACEVTHQGLSSPVTKSFNRGEC
notes: as for B1
B15: 18F2-66VH7VL3 (antibody, human IgG1, kappa)
heavy: not shown
light: DIVMTQSPSSLTVSLGEKATISCKSSQSLLNSGNQKNYVTWYQQKPGQPPKLLIYWSSTRSFGVPDRFSGSGSGTDFTLTISSLQAEDLAVYYCQNDYTYPFTFGSGTKLEIKRTVAAPSVFIFPPSDEQLKSGTASVVCLLNNFYPREAKVQWKVDNALQSGNSQESVTEQDSKDSTYSLSSTLTLSKADYEKHKVYACEVTHQGLSSPVTKSFNRGEC
notes: as for B1
B16: 18F2-5 (antibody, human IgG1, kappa, V domains shown)
VH: QVQLQQPGAELVRPGASVKLSCKASGYTFTSFWLNWVKQRPGQGLEWIGNIYPSTSYTVYNQKFKDKATLTVDKSSSTAYMQLSSPTSEDSAVYYCTRTWRGNSFDLWGQGTTLTVSS
VL: DIVMTQSPSSLTVTAGEKVTMSCKSNQSLLNSGNQKNYVTWYQQKPGQPPKLLIYWGSTRVRGVPDRFTGSGSGTDFTLTISSVQAEDLAVYYCQNDYTYPFTFGSGTKLEIKR
B17: 18F2-30 (antibody, human IgG1, kappa, V domains shown)
VH: QVQLQQPGAELVRPGASVKLSCKASGYTFTSFWLNWVKQRPGQGLEWIGNIYPSTSYTVYNQKFKDKATLTVDKSSSTAYMQLSSPTSEDSAVYYCTRTWRGNSFDYWGQGTTLTVSS
VL: DIVMTQSPSSLTVTAGEKVTMSCKSSQSLLNSGNQKNYVTWYQQKPGQPPKLLIYWGSTRSTGVPDRFTGSGSGTDFTLTISSVQAEDLAVYYCQNDYTYPFTFGSGTKLEIKR
B18: 18F2-66 (antibody, human IgG1, kappa, V domains shown)
VH: QVQLQQPGAELVRPGASVKLSCKASGYTFTSFWINWVKQRPGQGLEWIGNIYPSASYTVYNQKFKDKATLTVDKSSSTAYMQLSSPTSEDSAVYYCTRTWRGNSFDLWGQGTTLTVSS
VL: DIVMTQSPSSLTVTAGEKVTMSCKSSQSLLNSGNQKNYVTWYQQKPGQPPKLLIYWSSTRSFGVPDRFTGSGSGTDFTLTISSVQAEDLAVYYCQNDYTYPFTFGSGTKLEIKR
B19: 18F2-35 (antibody, human IgG1, kappa, V domains shown)
VH: QVQLQQPGAELVRPGASVKLSCKASGYTFTSFWLNWVKQRPGQGLEWIGNIYPSTSYTIYNQKFKDKATLTVDKSSSTAYMQLSSPTSEDSAVYYCTRTWRGNSFDYWGQGTTLTVSS
VL: DIVMTQSPSSLTVTAGEKVTMSCKSSQSLLNSGNQKNYLTWYQQKPGQPPKLLIYWGSTRVRGVPDRFTGSGSGTDFTLTISSVQAEDLAVYYCQNDYTYPFTFGSGTKLEIKR
B20: 18F2 (antibody, human IgG1, kappa, V domains shown)
VH: QVQLQQPGAELVRPGASVKLSCKASGYTFTSFWVNWVKQRPGQGLEWIGNIYPSTSYTVYNQKFKDKATLTVDKSSSTAYMQLSSPTSEDSAVYYCTRSWRGNSFDHWGQGTTLTVSS
VL: DIVMTQSPSSLTVTAGEKVTMSCKSSQSLLNSGNQKNYVTWYQQKPGQPPKLLIYWGSTRVRGVPDRFTGSGSGTDFTLTISSVQAEDLAVYYCQNDYTYPFTFGSGTKLEIKR
notes: Chimeric full length antibody, mouse variable regions with human IgG1/kappa constant regions; also called clone 18F2; parent clone 18F2

The target of one assay is T1, human Claudin 18.1 (human, UniProt P56856 1-261).
T1 construct: Overexpressed on HEK293A cells by lentivirus
T1 sequence (P56856 whole entry): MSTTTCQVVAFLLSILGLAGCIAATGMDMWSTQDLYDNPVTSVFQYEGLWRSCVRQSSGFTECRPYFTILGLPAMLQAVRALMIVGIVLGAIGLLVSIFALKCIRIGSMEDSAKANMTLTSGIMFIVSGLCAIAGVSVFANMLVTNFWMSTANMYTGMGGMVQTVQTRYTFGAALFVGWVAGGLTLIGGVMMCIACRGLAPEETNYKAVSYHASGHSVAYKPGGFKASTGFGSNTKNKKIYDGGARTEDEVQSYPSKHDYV
Briefly: FACS on HEK293A/hClaudin 18.1 cells.
As for B1, the binding result is given as “no binding”.

On to B2, for which the binding result is on record as “no binding”.

On to B3, for which the binding result is listed as “no binding”. Take B4: the binding result is on record as “no binding”.

B5: the binding result is “no binding”.

In the case of B6, the binding result is reported as “no binding”. On the same count and under the same terms, next, B7: “no binding”.

In the case of B8, the binding result is “no binding”.

As for B9, the binding result is listed as “no binding”. On the same count and under the same terms, as for B10, the entry is “no binding”. On the same count and under the same terms, next, B11: “no binding”. The same measure, in the same setting: next, B12: “no binding”.

Turning to B13, the binding result is recorded as “no binding”. Turning to B14, the binding result is recorded as “no binding”. Turning to B15, the binding result is “no binding”.

The next assay addresses T2, human Claudin 18.2 (human).
T2 construct: Overexpressed on HEK293A or MC38 cells by lentivirus; endogenous on KATO-III and NUGC-4 cells
The assay can be described thus: FACS on HEK-293A cells expressing human Claudin 18.2.
For B16, the EC50 (in general, the concentration that produces a half-maximal response) is 0.616 nM. The same measure, in the same setting: next, B17: 0.562 nM; B18: 0.524 nM. Still for that read-out and setting: next, B19: 0.509 nM; B20: 1.26 nM.
